From the supplement of paper PMC9170038

The sequences below were run on MS2 coat protein (assay: apparent KD of MS2 coat protein; higher = weaker reporter binding). Conditions: Eterna round: R107; input ligand: theophylline 20 uM.
Outline: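 Designed RNA switches were made by on-chip transcription from Illumina sequencing clusters and then titrated with SNAP-549-labelled MS2 coat protein. Twofold steps ran from 0.7 or 1.5 nM to 3 µM, each lasting 0.8–1.5 h early and 10–20 min late, in 100 mM Tris-HCl pH 7.5, 80 mM KCl, 4 mM MgCl2, without or with constant ligand. Apparent KD is the per-design median of normalised cluster binding-curve fits.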
“UGUAUGGACUGAAGGAGCGGGUUGAUACCAUGAGGAUCACCCAUGGAAAAGGCGAAAGCCGCCCAGGUAGGUCGCAGUCCAUACU” was tested, and the “apparent KD of MS2 coat protein” value was 19.7 nM. “UGGUACAUGAGGAUCACCCAUGUUCCAGAUACCAGAUACCCGGUUAUCCCUUGGCAGCUGGUGGUACAUGAGGAUCACCCAUGUG [Exclusion Theophylline A GF15]” was tested, and the “apparent KD of MS2 coat protein” value was 58.9 nM. For “GGACUAACCAGAAGGAGCGGCGCGCAGAAACUGCAAAAUCCUCCGCACGAGGAUCACCCGUGUCAGGUAGGUCGCUGGUUAGUCG [ArgBX 28]”, the “apparent KD of MS2 coat protein” value was 16.2 nM. For “CUAUAUAUAAGAAGGAGCGUCGAAAAUGGGUAAACAUGAGGAUCACCCAUGUAAAGGGAACGACAGGUAGGUCGCUUAUAUAUAG [AstromonsSSArgB#5]”, the “apparent KD of MS2 coat protein” value was 169 nM. “GGGUGUGAUCCGGAUACCAGUGAACAUGAGGAUCACCCAUGUGACCUGAGAUCGGCUCUUCACCCUUGGCAGCCGCGGUCGCAGG [Same State Theophylline B GF14]” was tested, and the “apparent KD of MS2 coat protein” value was 18.6 nM. In the case of “AAUUAUUACGGAAGGAGCGUCUUUCGGCUCAAACAUGAGGAUCACCCAUGUGAUUUUGAAUGACAGGUAGGUCGCCGAUAUUUGA [JR_AAArginiB_Sub030]”, the “apparent KD of MS2 coat protein” value is reported as 41.5 nM. With “UGUAUGGACUGAAGGAGCGGGAAAAUAAGAUGAGGAUCACCCAUCUAAAAGGCGAAAGCCACCCAGGUAGGUCGCAGUCCAUACU” the “apparent KD of MS2 coat protein” value was 34.8 nM. “AUGGCGUUGGUGGAGCGGUGAAAUGGCGAUACCAGCGUGGAAACACGCCCUUGGCAGCGCCAAAACAUGAGGAUCACCCAUGUUA [Usti]” was tested, and the “apparent KD of MS2 coat protein” value was 46 nM. “ACGUAAAGCAGAAGGAGCGUCUUCAAAUUACAUGAGGAUCACCCAUGUUUUGUGAUCAUAUGACAGGUAGGUCGCUGAAGUACGA [JR_SSArginiB_Sub003]” was tested, and the “apparent KD of MS2 coat protein” value was 97.5 nM.

Same assay, conditions: Eterna round: R107; input ligand: theophylline 2 mM
In the case of “GCUGGGUGCGCAAGGACCUGGCGUUGCGAUACCAGCACGGUAACGUGCCCUUGGCAGCGCACAUGAGGAUCACCCAUGUGGUGUG [#1 Exclusion - Theophylline A Attempt #20 (HarryS)]”, the “apparent KD of MS2 coat protein” value is reported as 301 nM. With “CUGUACAUCUCGGCCGCCACUGCAACAUGUAGAGAUGUAUAUGUACAUGAGGAUCACCCAUGUGGCAGGACCGGGAGGUGUGCAG [SSTryp B #27]” the “apparent KD of MS2 coat protein” value was 206 nM. For “GGCACAUAGUCGGCCGCCACUACGUGGAGAUCGGAGUACAUGAGGAUCACCCAUGUAUGGAAGGGUAGGACCGGGACUAUGUGCC [Horalka]”, the “apparent KD of MS2 coat protein” value was 123 nM. In the case of “GGACUAACUCGAAGGAGCGACGCGCAGAAACUGCAAUUUCCUCCACACGAGGAUCACCCGUGUCAGGUAGGUCGCGAGUUAGUCG [ArgBX 29]”, the “apparent KD of MS2 coat protein” value is reported as 14.7 nM. “GGUUGGUGUAGAGAUAUAUUGAUUACUGAAGGAGCGGGAAGAAACCCAGGUAGGUCGCAGAGAUCCACAUGAGGAUCACCCAUGU [!0.L]” was tested, and the “apparent KD of MS2 coat protein” value was 59.3 nM. For “AUGCAGAGCACGGCCGCCACUCCAUGUAUACAUGAGGAUCACCCAUGUAAUUUGUAUUUUUUAUAGAGGACCGGGUGAAAUGCAA [JR_SSTryptoB_Sub011]”, the “apparent KD of MS2 coat protein” value was 36.2 nM. In the case of “AGUCUUAAAGGAAGGAGCGCAGUCAUAACAUGAGGAUCACCCAUGUCGAGGUGAGGGUCAUUGCAGGUAGGUCGCCUUACUAAGA [Same State - Arginine B (Freestyle 6)]”, the “apparent KD of MS2 coat protein” value is reported as 132 nM. In the case of “UGUAUGGACUGAAGGAGCGGGUUGAUACCAUGAGGAUCACCCAUGGAAAAGGCGAAAGCCGCCCAGGUAGGUCGCAGUCCAUACU”, the “apparent KD of MS2 coat protein” value is reported as 18.4 nM. For “GGACUAACCAGAAGGAGCGGCGCGCAGAAACUGCAAAAUCCUCCGCACGAGGAUCACCCGUGUCAGGUAGGUCGCUGGUUAGUCG [ArgBX 28]”, the “apparent KD of MS2 coat protein” value was 20.8 nM. For “CUAUAUAUAAGAAGGAGCGUCGAAAAUGGGUAAACAUGAGGAUCACCCAUGUAAAGGGAACGACAGGUAGGUCGCUUAUAUAUAG [AstromonsSSArgB#5]”, the “apparent KD of MS2 coat protein” value was 184 nM. In the case of “GGGUGUGAUCCGGAUACCAGUGAACAUGAGGAUCACCCAUGUGACCUGAGAUCGGCUCUUCACCCUUGGCAGCCGCGGUCGCAGG [Same State Theophylline B GF14]”, the “apparent KD of MS2 coat protein” value is reported as 10.7 nM. With “AAUUAUUACGGAAGGAGCGUCUUUCGGCUCAAACAUGAGGAUCACCCAUGUGAUUUUGAAUGACAGGUAGGUCGCCGAUAUUUGA [JR_AAArginiB_Sub030]” the “apparent KD of MS2 coat protein” value was 32.1 nM. In the case of “UGUAUGGACUGAAGGAGCGGGAAAAUAAGAUGAGGAUCACCCAUCUAAAAGGCGAAAGCCACCCAGGUAGGUCGCAGUCCAUACU”, the “apparent KD of MS2 coat protein” value is reported as 8.34 nM. “AUGGCGUUGGUGGAGCGGUGAAAUGGCGAUACCAGCGUGGAAACACGCCCUUGGCAGCGCCAAAACAUGAGGAUCACCCAUGUUA [Usti]” was tested, and the “apparent KD of MS2 coat protein” value was 59.8 nM. In the case of “ACGUAAAGCAGAAGGAGCGUCUUCAAAUUACAUGAGGAUCACCCAUGUUUUGUGAUCAUAUGACAGGUAGGUCGCUGAAGUACGA [JR_SSArginiB_Sub003]”, the “apparent KD of MS2 coat protein” value is reported as 86.4 nM.

Same assay, conditions: Eterna round: R107; input ligand: tryptophan 2.4 mM
With “GCUGGGUGCGCAAGGACCUGGCGUUGCGAUACCAGCACGGUAACGUGCCCUUGGCAGCGCACAUGAGGAUCACCCAUGUGGUGUG [#1 Exclusion - Theophylline A Attempt #20 (HarryS)]” the “apparent KD of MS2 coat protein” value was 162 nM. With “CUGUACAUCUCGGCCGCCACUGCAACAUGUAGAGAUGUAUAUGUACAUGAGGAUCACCCAUGUGGCAGGACCGGGAGGUGUGCAG [SSTryp B #27]” the “apparent KD of MS2 coat protein” value was 111 nM. With “GGCACAUAGUCGGCCGCCACUACGUGGAGAUCGGAGUACAUGAGGAUCACCCAUGUAUGGAAGGGUAGGACCGGGACUAUGUGCC [Horalka]” the “apparent KD of MS2 coat protein” value was 18.7 nM. With “GGACUAACUCGAAGGAGCGACGCGCAGAAACUGCAAUUUCCUCCACACGAGGAUCACCCGUGUCAGGUAGGUCGCGAGUUAGUCG [ArgBX 29]” the “apparent KD of MS2 coat protein” value was 16 nM. In the case of “GGUUGGUGUAGAGAUAUAUUGAUUACUGAAGGAGCGGGAAGAAACCCAGGUAGGUCGCAGAGAUCCACAUGAGGAUCACCCAUGU [!0.L]”, the “apparent KD of MS2 coat protein” value is reported as 27.5 nM. “UGUCGCAGGUUAGAUACCAGCGAGGCGCGGGUAAAUGUUCACAUGAGGAUCACCCAUGUUCGCCCUUGGCAGCUAGUAGGCAUAA [theeternabot_exclusion_MS2_Theo_B_36]” was tested, and the “apparent KD of MS2 coat protein” value was 27.3 nM. With “AGUCUUAAAGGAAGGAGCGCAGUCAUAACAUGAGGAUCACCCAUGUCGAGGUGAGGGUCAUUGCAGGUAGGUCGCCUUACUAAGA [Same State - Arginine B (Freestyle 6)]” the “apparent KD of MS2 coat protein” value was 96.1 nM. For “UGUAUGGACUGAAGGAGCGGGUUGAUACCAUGAGGAUCACCCAUGGAAAAGGCGAAAGCCGCCCAGGUAGGUCGCAGUCCAUACU”, the “apparent KD of MS2 coat protein” value was 16.6 nM. With “UGGUACAUGAGGAUCACCCAUGUUCCAGAUACCAGAUACCCGGUUAUCCCUUGGCAGCUGGUGGUACAUGAGGAUCACCCAUGUG [Exclusion Theophylline A GF15]” the “apparent KD of MS2 coat protein” value was 44 nM. “GGACUAACCAGAAGGAGCGGCGCGCAGAAACUGCAAAAUCCUCCGCACGAGGAUCACCCGUGUCAGGUAGGUCGCUGGUUAGUCG [ArgBX 28]” was tested, and the “apparent KD of MS2 coat protein” value was 17.3 nM. In the case of “CUAUAUAUAAGAAGGAGCGUCGAAAAUGGGUAAACAUGAGGAUCACCCAUGUAAAGGGAACGACAGGUAGGUCGCUUAUAUAUAG [AstromonsSSArgB#5]”, the “apparent KD of MS2 coat protein” value is reported as 206 nM. “GGGUGUGAUCCGGAUACCAGUGAACAUGAGGAUCACCCAUGUGACCUGAGAUCGGCUCUUCACCCUUGGCAGCCGCGGUCGCAGG [Same State Theophylline B GF14]” was tested, and the “apparent KD of MS2 coat protein” value was 10 nM. For “AAUUAUUACGGAAGGAGCGUCUUUCGGCUCAAACAUGAGGAUCACCCAUGUGAUUUUGAAUGACAGGUAGGUCGCCGAUAUUUGA [JR_AAArginiB_Sub030]”, the “apparent KD of MS2 coat protein” value was 25.2 nM. With “UGUAUGGACUGAAGGAGCGGGAAAAUAAGAUGAGGAUCACCCAUCUAAAAGGCGAAAGCCACCCAGGUAGGUCGCAGUCCAUACU” the “apparent KD of MS2 coat protein” value was 7.03 nM. With “AUGGCGUUGGUGGAGCGGUGAAAUGGCGAUACCAGCGUGGAAACACGCCCUUGGCAGCGCCAAAACAUGAGGAUCACCCAUGUUA [Usti]” the “apparent KD of MS2 coat protein” value was 18.1 nM. In the case of “ACGUAAAGCAGAAGGAGCGUCUUCAAAUUACAUGAGGAUCACCCAUGUUUUGUGAUCAUAUGACAGGUAGGUCGCUGAAGUACGA [JR_SSArginiB_Sub003]”, the “apparent KD of MS2 coat protein” value is reported as 66.5 nM.
